The values below come from patent US20260028424A1 (GRANULAR THERAPEUTICS, published 2026).

Residue numbers refer to the chain shown, from its start.

As a reminder, the Kd is a measure of binding affinity in units of concentration. Read a low Kd as tighter binding. One may read the koff as the first-order rate constant of dissociation. Higher therefore signals fast dissociation. Broadly, the kon is a measure of how fast the partners come together. The EC50 is the midpoint of the concentration-response curve. A high value points to a need for much substance.

Test [1] has as its target T1, human CD203c expressed on the surface of KU812 cells (human, UniProt O14638 1-875).
T1 construct: whole, on cells; also called cell-surface CD203c; cell surface CD203c on KU812 cells
T1 sequence (looked up): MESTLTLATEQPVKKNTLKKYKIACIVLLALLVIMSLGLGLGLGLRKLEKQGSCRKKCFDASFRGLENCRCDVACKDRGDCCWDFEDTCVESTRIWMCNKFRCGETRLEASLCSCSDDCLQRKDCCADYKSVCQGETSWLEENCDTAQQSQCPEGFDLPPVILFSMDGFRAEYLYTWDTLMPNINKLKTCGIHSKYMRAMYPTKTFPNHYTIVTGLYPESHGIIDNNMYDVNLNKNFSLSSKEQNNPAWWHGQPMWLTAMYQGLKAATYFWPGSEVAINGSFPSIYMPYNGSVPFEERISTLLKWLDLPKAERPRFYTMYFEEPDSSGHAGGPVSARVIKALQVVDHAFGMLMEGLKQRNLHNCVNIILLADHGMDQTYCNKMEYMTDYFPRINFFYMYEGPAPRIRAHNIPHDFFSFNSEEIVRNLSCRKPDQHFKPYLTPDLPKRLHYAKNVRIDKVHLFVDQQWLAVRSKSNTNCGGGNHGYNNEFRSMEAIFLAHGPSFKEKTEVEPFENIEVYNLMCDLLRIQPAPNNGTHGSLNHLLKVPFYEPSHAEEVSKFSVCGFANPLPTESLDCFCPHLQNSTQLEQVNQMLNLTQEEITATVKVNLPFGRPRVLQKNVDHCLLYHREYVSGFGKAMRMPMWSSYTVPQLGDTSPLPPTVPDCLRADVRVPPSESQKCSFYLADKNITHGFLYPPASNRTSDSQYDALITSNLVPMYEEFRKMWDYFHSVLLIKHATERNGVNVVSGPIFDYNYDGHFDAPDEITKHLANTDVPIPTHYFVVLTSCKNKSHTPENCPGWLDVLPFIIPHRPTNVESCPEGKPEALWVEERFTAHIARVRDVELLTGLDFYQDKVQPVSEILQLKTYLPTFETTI
Description: flow cytometry on KU812 cells, which carry both c-Kit and CD203c; signal not separated by target. Here is the method:
(§1) All treatments were performed on cells seeded in T75 flasks at a seeding density of 0.3e6/ml. Cells were cultured in the presence of 80 ng/ml of SCF and treated with 20 ng/ml of IL3 24 hours prior to antibody staining. Following SCF/IL3 treatment, cells were harvested and stained with live dead stain (Zombie UV Biolegend 423108). Cells were then stained with a titration of anti-CD203c antibodies/bispecifics or respective isotype controls in a 5-fold dilution series starting at 50 μg/mL and detected with Anti human-Fc AF647 antibody (JIR 109-605-098). Samples were subsequently run on a Yeti analyzer, gating on 10K live cells. Subsequent analysis was performed using FlowJo software and data represented as MFI (median fluorescent intensity).
(§2) The purified proteins were assessed for co-operative binding to both targets, CD203c and c-Kit, on KU812 cells. […] This enhanced binding translates to potent inhibition of c-Kit receptor phosphorylation by the F6/MH1 bispecific molecule when compared to monovalent anti-c-kit, which is shown in FIG. 8.
Background: Flow cytometry measures light scatter and fluorescence of single cells or particles in a stream.

In test [2] the target is T2, c-Kit on KU812 cells (UniProt P10721 26-976, limits assumed).
T2 construct: whole, on cells; also called c-Kit receptor; CD117
Described as above. As to the method: as §1, §2

The target of a further test is human c-Kit (SPR) (human, UniProt P10721 26-520, limits assumed). Description: SPR, single-cycle kinetics, Human C-kit. (In SPR one partner is held on a chip, and binding of the other changes the refractive index at the surface.)
In a further test the target is cyno c-Kit (SPR) (cyno, UniProt F6V858 26-520 (rhesus entry)). Description: SPR, single-cycle kinetics, Cynomolgus C-kit.
In test [3] the target is T3, biotinylated cynomolgus CD203c (bio-cyCD203c, Icosagen) (cynomolgus monkey, UniProt A0A2K5TKP4 31-874, biotinylated (site not stated)).
T3 construct: Captured on a Biotin CAPture chip for SPR; also called cyno CD203c
T3 sequence: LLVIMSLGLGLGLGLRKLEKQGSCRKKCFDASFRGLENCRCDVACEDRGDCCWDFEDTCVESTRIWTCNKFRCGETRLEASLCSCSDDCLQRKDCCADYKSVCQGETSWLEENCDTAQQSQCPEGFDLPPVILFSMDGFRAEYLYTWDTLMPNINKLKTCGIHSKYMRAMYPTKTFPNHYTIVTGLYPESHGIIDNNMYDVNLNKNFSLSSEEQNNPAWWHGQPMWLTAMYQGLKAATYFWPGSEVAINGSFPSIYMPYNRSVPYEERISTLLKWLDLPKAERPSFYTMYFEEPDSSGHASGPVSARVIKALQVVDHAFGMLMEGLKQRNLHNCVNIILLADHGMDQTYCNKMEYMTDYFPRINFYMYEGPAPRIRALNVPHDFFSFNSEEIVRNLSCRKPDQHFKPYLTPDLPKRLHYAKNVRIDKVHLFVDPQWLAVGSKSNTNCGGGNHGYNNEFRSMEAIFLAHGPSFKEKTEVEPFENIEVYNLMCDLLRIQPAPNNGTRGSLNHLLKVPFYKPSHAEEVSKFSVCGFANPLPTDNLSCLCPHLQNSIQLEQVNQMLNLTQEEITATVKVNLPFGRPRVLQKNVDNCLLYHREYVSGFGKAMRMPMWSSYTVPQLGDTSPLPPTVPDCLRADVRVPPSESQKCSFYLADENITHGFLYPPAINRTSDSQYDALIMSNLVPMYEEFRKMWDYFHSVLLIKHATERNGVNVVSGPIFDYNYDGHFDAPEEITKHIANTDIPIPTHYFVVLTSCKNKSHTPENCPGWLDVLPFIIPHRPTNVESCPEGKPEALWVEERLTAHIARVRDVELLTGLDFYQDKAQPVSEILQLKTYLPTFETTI
Description: SPR, single-cycle protocol, Bio-cyCD203c; table gives Rmax, Chi2 and KD only.

In test [4] the target is T4, biotinylated human CD203c (bio-huCD203c, Acro, Cat. nr. H52H4) (human, UniProt O14638 49-875, limits assumed, biotinylated (site not stated)).
T4 construct: Captured on a Biotin CAPture chip for SPR
T4 sequence (looked up): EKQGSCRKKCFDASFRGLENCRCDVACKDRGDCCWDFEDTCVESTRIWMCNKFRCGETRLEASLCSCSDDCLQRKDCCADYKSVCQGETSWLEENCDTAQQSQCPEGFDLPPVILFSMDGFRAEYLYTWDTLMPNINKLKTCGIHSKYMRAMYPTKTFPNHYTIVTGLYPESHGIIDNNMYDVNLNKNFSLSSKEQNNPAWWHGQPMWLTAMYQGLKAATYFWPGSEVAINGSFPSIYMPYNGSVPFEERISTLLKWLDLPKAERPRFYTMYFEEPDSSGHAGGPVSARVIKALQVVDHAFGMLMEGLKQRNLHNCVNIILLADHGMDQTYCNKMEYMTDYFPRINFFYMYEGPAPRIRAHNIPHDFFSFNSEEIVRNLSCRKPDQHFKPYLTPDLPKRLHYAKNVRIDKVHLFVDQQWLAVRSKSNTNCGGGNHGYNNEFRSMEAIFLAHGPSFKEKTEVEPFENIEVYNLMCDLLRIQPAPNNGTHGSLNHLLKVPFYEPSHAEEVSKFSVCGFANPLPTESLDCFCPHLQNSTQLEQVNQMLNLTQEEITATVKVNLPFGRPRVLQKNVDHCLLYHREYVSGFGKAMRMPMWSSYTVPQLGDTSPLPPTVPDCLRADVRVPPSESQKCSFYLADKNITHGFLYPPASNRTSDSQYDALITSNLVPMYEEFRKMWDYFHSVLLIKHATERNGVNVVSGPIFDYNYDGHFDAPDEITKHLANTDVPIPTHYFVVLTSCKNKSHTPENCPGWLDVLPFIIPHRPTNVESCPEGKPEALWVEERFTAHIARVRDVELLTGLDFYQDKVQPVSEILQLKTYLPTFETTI
Description: SPR, single-cycle protocol, Bio-huCD203c; table gives Rmax, Chi2 and KD only.

In test [5] the target is T1, human CD203c expressed on the surface …. Description: flow cytometry on KU812 cells, which carry both c-Kit and CD203c (median fluorescence intensity); signal not separated by target; no unit follows the number, the axis is in nM and the dotted line stands at about 0.2. Here is the method:
as §1

The target of test [6] is T2, c-Kit on KU812 cells. The description is as above. As to the method:
as §1

Test [7] addresses T1, human CD203c expressed on the surface …. Description: flow cytometry on KU812 cells, which carry both c-Kit and CD203c (median fluorescence intensity); signal not separated by target. As to the method: as §1
In test [8] the target is T2, c-Kit on KU812 cells. The description is as above. As to the method: as §1
Test [9] concerns the target T4, biotinylated human CD203c …. Description: SPR (Biacore), biotinylated CD203c captured on the chip, Fab as analyte 1000 - 7.81 nM; response-versus-concentration fits in FIG. 11A-11C. As to the method: (§3) Biotinylated versions of the CD203c proteins were captured on a BiotinCap chip, and the antibodies injected in-solution in 2-fold serial dilutions. An SPR affinity determination assay was carried out on a BIAcore T20 using the conditions described below: [0212] […] Ligand Capture—biotinylated antigen: bio-huCD203c (Acro, Cat. nr. H52H4) and bio-cyCD203c (Icosagen) at 20 nM and 10 nM, respectively, in 1×HBS-EP+pH 7.4, on flow cell 2 over 1 min at 10 μl/min [0215] […] Complete blank assay runs without analyte antibody were included as blank reference. [0216] […] Regeneration: Baseline levels were restored using the regeneration solutions provided in the Biotin CAPture kit [0218] SPR running buffer: 1×HBS-EP+pH 7.4 (Cytiva; cat. nr. BR100669) [0219] Analysis: Data was analyzed using the Biacore Insight Evaluation Software by the steady state affinity model or the 1:1 binding model. Sensorgrams were referenced to flow cell 1 and the 0 nM concentration cycle.

Test [10] has as its target T3, biotinylated cynomolgus CD203c …. The description is as above. As to the method:
as §3

Sequence of human c-Kit (SPR) (P10721 26-520 limits assumed): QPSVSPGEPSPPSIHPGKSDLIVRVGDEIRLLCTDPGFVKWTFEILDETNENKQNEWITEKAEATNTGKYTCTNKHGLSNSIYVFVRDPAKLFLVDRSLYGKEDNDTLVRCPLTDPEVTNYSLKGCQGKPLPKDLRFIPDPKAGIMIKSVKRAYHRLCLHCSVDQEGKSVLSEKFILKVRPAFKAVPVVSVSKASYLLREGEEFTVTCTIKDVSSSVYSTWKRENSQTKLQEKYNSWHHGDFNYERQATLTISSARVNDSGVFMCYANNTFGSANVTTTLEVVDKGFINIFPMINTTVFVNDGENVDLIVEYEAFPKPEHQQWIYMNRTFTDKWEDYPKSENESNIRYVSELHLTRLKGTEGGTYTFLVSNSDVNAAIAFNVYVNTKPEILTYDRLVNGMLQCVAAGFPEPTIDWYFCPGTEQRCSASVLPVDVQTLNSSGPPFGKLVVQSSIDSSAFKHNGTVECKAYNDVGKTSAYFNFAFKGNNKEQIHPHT
T2 sequence (P10721 26-976 limits assumed): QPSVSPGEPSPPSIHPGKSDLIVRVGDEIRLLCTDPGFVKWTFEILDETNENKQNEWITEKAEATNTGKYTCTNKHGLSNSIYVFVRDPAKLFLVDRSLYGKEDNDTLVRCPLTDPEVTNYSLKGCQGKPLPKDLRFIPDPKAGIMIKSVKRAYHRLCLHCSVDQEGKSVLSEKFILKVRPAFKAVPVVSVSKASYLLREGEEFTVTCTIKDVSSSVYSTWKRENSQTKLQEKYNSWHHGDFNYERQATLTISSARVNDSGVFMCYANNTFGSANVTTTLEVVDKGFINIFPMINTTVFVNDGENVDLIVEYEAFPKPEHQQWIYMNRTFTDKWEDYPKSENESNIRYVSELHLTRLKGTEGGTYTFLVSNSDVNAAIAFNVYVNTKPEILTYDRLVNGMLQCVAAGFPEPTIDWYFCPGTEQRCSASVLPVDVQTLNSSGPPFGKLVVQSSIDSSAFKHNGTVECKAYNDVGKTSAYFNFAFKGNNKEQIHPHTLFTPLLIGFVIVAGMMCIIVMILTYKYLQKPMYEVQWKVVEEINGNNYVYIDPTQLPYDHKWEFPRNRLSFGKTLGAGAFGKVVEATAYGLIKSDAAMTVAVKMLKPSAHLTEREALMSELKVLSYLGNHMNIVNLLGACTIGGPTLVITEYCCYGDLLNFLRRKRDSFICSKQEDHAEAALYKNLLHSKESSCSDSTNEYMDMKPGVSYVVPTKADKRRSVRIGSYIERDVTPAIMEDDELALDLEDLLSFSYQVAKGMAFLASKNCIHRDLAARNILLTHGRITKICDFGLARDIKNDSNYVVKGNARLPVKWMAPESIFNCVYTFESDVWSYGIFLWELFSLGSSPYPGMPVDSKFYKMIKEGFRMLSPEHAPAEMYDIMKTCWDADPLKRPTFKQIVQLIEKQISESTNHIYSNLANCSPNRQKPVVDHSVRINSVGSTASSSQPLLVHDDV
Sequence of cyno c-Kit (SPR) (chain, as listed by the source): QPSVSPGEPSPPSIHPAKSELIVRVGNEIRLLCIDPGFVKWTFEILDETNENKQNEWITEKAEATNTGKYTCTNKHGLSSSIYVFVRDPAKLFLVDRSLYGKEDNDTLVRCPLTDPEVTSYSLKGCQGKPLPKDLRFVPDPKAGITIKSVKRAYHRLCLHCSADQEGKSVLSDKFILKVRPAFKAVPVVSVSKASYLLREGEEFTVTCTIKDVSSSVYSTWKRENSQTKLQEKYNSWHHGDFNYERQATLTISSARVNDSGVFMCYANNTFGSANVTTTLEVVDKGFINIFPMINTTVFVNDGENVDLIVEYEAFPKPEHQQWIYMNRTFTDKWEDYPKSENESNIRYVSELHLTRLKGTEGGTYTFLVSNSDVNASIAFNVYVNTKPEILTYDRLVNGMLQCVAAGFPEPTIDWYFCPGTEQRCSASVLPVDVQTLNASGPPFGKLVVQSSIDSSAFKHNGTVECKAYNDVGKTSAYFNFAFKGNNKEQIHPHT

B1: 1.27/MH1 common light chain bispecific (anti-CD203c 1.27 x anti-c-Kit MH1) (bispecific antibody, V domains shown)
VH 1: QVQLVQSGAEVKKPGASVKVSCKASGYTFTDYYMNWVRQAPGQGLEWMGRIYPGSGNTYYAQKFQGRVTMTRDTSTSTVYMELSSLRSEDTAVYYCARGVYYYDYWGQGTLVTVSS
VH 2: EVQLVQSGAEVKKPGESLKISCKGSGYRFTSYWIGWVRQMPGKGLEWMGIIYPGDSDTRYSPSFQGQVTISADKSISTAYLQWSSLKASDTAMYYCARKDYYYYAMDVWGQGTTVTVSS
VL: DIQMTQSPSSLSASVGDRVTITCRASQGIRTNLAWFQQKPGKAPKSLIYAASSLQSGVPSRFSGSGSGTDFTLTISSLQPEDFATYYCQQYNSYPRTFGGGTKVEIK
notes: Knob-in-hole IgG1null bispecific with human Ckappa
Regarding B1, the binding result (in test [1]; with c-Kit on KU812 cells [2]) was “binds” in each case.

B2: MH1_C/F6.12_D bispecific (pI-engineered) (bispecific antibody, V domains shown)
VH 1: B1 VH 1 with K13E, K63N
VH 2: B1 VH 2 with E1Q, T30A, Y32N, I50E, D57N, S85R, Y104G, A105I
VL: B1 VL
notes: as for B1
Turning to B2, the Kd in the test with human c-Kit (SPR) amounted to 43 nM; with cyno c-Kit (SPR), 52.3 nM; in test [3] it was 63.1 nM; in [4], 79.2 nM. The dissociation rate constant (koff) is 0.00919 s⁻¹ in the test with human c-Kit (SPR) and 0.0152 s⁻¹ with cyno c-Kit (SPR). The kon worked out at 214000 M⁻¹ s⁻¹ in the test with human c-Kit (SPR) and 291000 M⁻¹ s⁻¹ with cyno c-Kit (SPR). Moreover, the EC50 (in test [5]; in the test with c-Kit on KU812 cells [6]) was 0.214 nM in each case.

B3: FJ2156_MH1_C x F6_12B huIgG1 KIH (bispecific antibody, V domains shown)
VH 1: B1 VH 1 with K13E, K63N
VH 2: B1 VH 2 with E1Q, T30A, Y32N, E46Q, I50E, D57N, Y104G, A105I
VL: B1 VL
notes: also called MH1_C/F6.12_B
With B3, the Kd came to 44.5 nM with human c-Kit (SPR), 52.4 nM in the test with cyno c-Kit (SPR), 75.8 nM in test [3] and 108 nM in [4]. The koff with human c-Kit (SPR) came to 0.00949 s⁻¹; with cyno c-Kit (SPR), 0.0155 s⁻¹. Besides, the values for the kon with human c-Kit (SPR) and with cyno c-Kit (SPR) were 213000 M⁻¹ s⁻¹ and 295000 M⁻¹ s⁻¹, respectively. For the same molecule, the EC50 (in test [7]; with c-Kit on KU812 cells [8]) was 0.238 nM each time.

B4: 1.27-Fab (Fab, V domains shown)
VH: B1 VH 2
VL: B1 VL
In the case of B4, the Kd in test [9] was 705 nM; in test [10], 387 nM.
